Experimental data: patent US20190359719A1 (published 2019)
Residue numbers refer to the chain shown, from its start. Where two headings read alike, the source gives them in different places. Each block holds one binder with its values, some of them ahead of it.

Assays:
[1] = target: T1, recombinant c-Met extracellular domain (R&D Systems cat#358-MT-100/CF) (UniProt P08581 25-932); assay: Octet Red (BLI)
T1 chain: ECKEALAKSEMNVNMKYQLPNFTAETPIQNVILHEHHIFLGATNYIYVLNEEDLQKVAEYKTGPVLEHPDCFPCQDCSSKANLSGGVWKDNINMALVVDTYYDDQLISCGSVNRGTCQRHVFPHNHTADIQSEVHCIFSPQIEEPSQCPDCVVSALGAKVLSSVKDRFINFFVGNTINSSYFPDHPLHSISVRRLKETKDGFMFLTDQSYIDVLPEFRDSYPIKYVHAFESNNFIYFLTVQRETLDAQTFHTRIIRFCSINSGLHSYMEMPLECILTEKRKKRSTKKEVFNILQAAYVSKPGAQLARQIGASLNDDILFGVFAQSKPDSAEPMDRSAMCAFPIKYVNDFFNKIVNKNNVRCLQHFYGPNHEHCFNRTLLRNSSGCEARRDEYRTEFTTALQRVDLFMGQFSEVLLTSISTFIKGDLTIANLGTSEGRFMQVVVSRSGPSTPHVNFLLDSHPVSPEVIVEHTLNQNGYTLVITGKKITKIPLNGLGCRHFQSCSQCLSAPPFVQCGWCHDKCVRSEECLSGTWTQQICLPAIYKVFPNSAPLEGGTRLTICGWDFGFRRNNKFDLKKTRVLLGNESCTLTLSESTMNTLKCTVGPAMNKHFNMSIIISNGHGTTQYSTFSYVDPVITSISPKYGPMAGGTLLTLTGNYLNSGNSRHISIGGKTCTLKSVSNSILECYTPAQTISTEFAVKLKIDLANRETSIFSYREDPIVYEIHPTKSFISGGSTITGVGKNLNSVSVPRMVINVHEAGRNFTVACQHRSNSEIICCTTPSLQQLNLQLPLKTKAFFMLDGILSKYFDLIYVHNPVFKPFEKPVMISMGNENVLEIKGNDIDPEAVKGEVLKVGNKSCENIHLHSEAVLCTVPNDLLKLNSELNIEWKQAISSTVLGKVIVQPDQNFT

[2] = target: T1, recombinant c-Met extracellular domain …; assay: Octet Red (BLI)
[3] = target: T1, recombinant c-Met extracellular domain …; assay: Octet Red (BLI)
[4] = target: T1, recombinant c-Met extracellular domain …; assay: Biacore SPR
[5] = target: T1, recombinant c-Met extracellular domain …; assay: Biacore SPR
[6] = target: T1, recombinant c-Met extracellular domain …; assay: ELISA, blocking of HGF binding to c-Met
[7] = target: T1, recombinant c-Met extracellular domain …; assay: ELISA, blocking of HGF binding to c-Met

B3: E1 anti-c-Met antibody in IgG format (antibody, V domains shown)
VH: QVQLVQSGAEVKKPGASVKVSCKTSGYTFSGDYMHWVRQAPGQGLEWMGWINPNSGGTNYAQKFQGRVTMTRDTSISTAYMELSRLRSDDTAVYYCAREPGRDYYYYDGMDVWGQGTTVTVSS
VL: QSVVTQPPSVSGAPGQRVTISCTGSSSNIGAGYDVHWYQQLPGTVPKLLIYGNSNRPSGVPDRFSGSKSGTSASLAITGLQAEDEADYYCQSYDSSLSAYVFGTGTKVTVL
Kd [3]: 4.5 nM
Kd [4]: 18.6 nM
Ka [5]: 5.37e+07 M⁻¹
IC50 [6]: 3.18 nM

B4: A1 anti-c-Met antibody in IgG format (antibody, V domains shown)
VH: QVQLQESGPGLVKPSQTLSLTCTVSGGSISSGGYYWSWIRQHPGKGLEWIGEINHSGSTNYNPSLKSRVTISVDTSKNQFSLKLSSVTAADTAVYYCARGRDGYDFDPWGQGTLVTVSS
VL: LPVLTQPASVSGSPGQSITISCTGTSSDVGGYNYVSWYQQHPGKAPKLMIYDVSDRPSGVSTRFSGSKSGNTASLTISGLQAEDEADYYCSSYRSSSALVVFGGGTKLTVL
Kd [4]: 1.98 nM
IC50 [7]: 1.73 nM
Kd [1]: 0.8 nM
Ka [5]: 5.3e+08 M⁻¹

Second part, the binder after the results:

Kd [1]: 1.5 nM
B1: A8 (antibody, V domains shown)
VH: QITLKESGAEVKKPGSSVKVSCKASGGTFSSYGISWVRQAPGQGLEWMGGIIPMFGTANYAQKFQGRVTITADESTSTAYMELSSLRSEDTAVYYCARDEVAPDYYGSGPSYGMDVWGQGTMVTVSS
VL: SYELMQPASVSGSPGQSITISCTGTSSDVGGYDHVSWYQQHPGKAPKLMIYAVRNRPSGVPDRFSGSKSGNTASLTISGLQAEDEADYYCSSYTSSLTYVFGTGTKVTVL

Kd [2]: 0.15 nM
B2: B12 anti-c-Met antibody in IgG format (antibody, V domains shown)
VH: QVQLVESGAEVKKPGASVKVSCKASGYTFTGYYMHWVRQAPGQGLEWMGWINPNSGNTGYAQKFQGRVTMTRNTSISTAYMELSSLRSEDTAVYYCARRGTTVSFDYWGQGTTVTVSS
VL: QAVLTQPPSVSGSPGQSITISCTGTSSDVGTFNLVSWYQQHPGKAPKLIIYEVSKRPSDVSPRYSGSKSGTTASLTISVLQTEDEADYYCCSYTTSSSYVFGIGTKVTVL

Kd [2]: 0.7 nM
B5: F3 anti-c-Met antibody in IgG format (antibody, V domains shown)
VH: QVQLVESGPGLVKPSGTLSLTCAVSGGSISSSNWWSWVRQPPGKGLEWIGEIYHSGSTNYNPSLKSRVTISVDKSKNQFSLKLSSVTAADTAVYYCARSAYGDYFLDYWGQGTLVTVSS
VL: B4 VL with L1Q, P2S, M49L, S54D, D55S, T62N, Y93F, R94T, A98T, L108V
